The record followed here is publication PMC7116788 (Nature microbiology, 2021).

The stoichiometry N is a count of units in the complex or per binding partner.

Where two headings read alike, the source gives them in different places.

Data set [1] concerns the molecule itself. Kind of data set: cryo-EM structure.
Data set [2] deals with the molecule itself. The data set is described as follows: cryo-EM structure. This is another data set of the same source.

B1: GldL (Flavobacterium johnsoniae) (natural protein)
chain: MALLSKKVMNFAYGMGAAVVIVGALFKITHFEIGPLTGTVMLSIGLLTEALIFALSAFEPVEDELDWTLVYPELANGQARKKEAKAETATDAQGLLSQKLDAMLKEAKVDGELMASLGNSIKNFEGAAKAISPTVDSIAGQKKYAEEMSMAAAQMESLNSLYKVQLESASRNAQANSEIAENAAKLKEQMASMTANIASLNSVYGGMLSAMSNKG
As for B1, the “stoichiometry N” value in data set [1] worked out at 5.

B2: PorM (Porphyromonas gingivalis ATCC 33277) (natural protein, UniProt B2RLE8 1-516, looked up)
chain: MAVGSNGNANRQKMINLMYLVFIAMMALNVSSEVLDGFDKVDKSLTSSIDGSDKRNNLVLSELNTAYRTNPEKVKVWYERSLVLQKEADSLCTFIDDLKLAIARESDGKDAKVNDIRRKDNLDASSVVMLNPINGKGSTLRKEVDKFRELVATLMTDKAKLKLIEQALNTESGTKGKSWESSLFENMPTVAAITLLTKLQSDVRYAQGEVLADLVKSVDVGDYRVNSITAQVIPQSQIVMSGDTYKANIVLSSVDTTQRPDVFVNGKLLSPENMGLFTATAGAPGTYPVKGYIEMMGNDGVKIRRDFESEYFVTEPMASVAPTMMNVLYAGIDNPINIAVPGVAQQNVSATINNGTLTRRGNLWIARPTKVGSEAIISVTAQSGGRTIQMAKTTLRVRALPDPLPYIEYKDVQGNTKRFKGGRLGKREILAAGGIKAALDDDLLEVNYTVVKFQLVFYDSMGNSIPEVSDGASFSERQKRQIQNLGKGKRFYVTEVIARGPDGIERKIPAIEVIVN
For B2, the “stoichiometry N” value in data set [2] was found to be 2.

B3: PorL (Porphyromonas gingivalis ATCC 33277) (natural protein, UniProt B2RLE9 1-309, looked up)
chain: MGHYRRYKNILEMYLASHKGRRLLNIVYSWGAAVVILGALFKLLHLPMGNEMLFVGMITEFLVFFISGFEKPAMEYHWEEVFPELDSKNPMDRREMEQRREYLREKAKEAAAYAERPSSVRLASASLGTQPQEQPKPATPFQSQLTGILPEEQIQRLSEGIDKLAEAGEQLARIGRTAAAMTESYEQMQADQEGLRLNSQSYIQQMESLSRNISGLNTIYEIQLKGISSQIDTIDRINRGLAHIRDMYDNSVIDSSSFRNENERMARQLTQLNEVYARLLQALTTNVGLPGMPGNFGASNPSSSGSSPL
For the protein B3, the binding result in data set [2] is “binds”.
